B1: unnamed (protein)
chain: MKIVPPKPFFFEAGERAVLLLHGFTGNSADVRMLGRFLESKGYTCHAPIYKGHGVPPEELVHTGPDDWWQDVMNGYEFLKNKGYEKIAVAGLSLGGVFSLKLGYTVPIEGIVTMCAPMYIKSEETMYEGVLEYAREYKKREGKSEEQIEQEMEKFKQTPMKTLKALQELIADVRDHLDLIYAPTFVVQARHDEMINPDSANIIYNEIESPVKQIKWYEQSGHVITLDQEKDQLHEDIYAFLESLDW
B2: unnamed (protein)
chain: MERTVVETRYGRLRGEMNEGVFVWKGIPYAKAPVGERRFLPPEPPDAWDGVREATSFGPVVMQPSDPIFSGLLGRMSEAPSEDGLYLNIWSPAADGKKRPVLFWIHGGAFLFGSGSSPWYDGTAFAKHGDVVVVTINYRMNVFGFLHLGDSFGEAYAQAGNLGILDQVAALRWVKENIAAFGGDPDNITIFGESAGAASVGVLLSLPEASGLFRRAMLQSGSGSLLLRSPETAMAMTERILDKAGIRPGDRERLLSIPAEELLRAALSLGPGVMYGPVVDGRVLRRHPIEALRYGAASGIPILIGVTKDEYNLFTLTDPSWTKLGEKELLDRINREVGPVPEEAIRYYKETAEPSAPTWQTWLRIMTYRVFVEGMLRTADAQAAQGADVYMYRFDYETPVFGGQLKACHALELPFVFHNLHQPGVANFVGNRPEREAIANEMHYAWLSFARTGDPNGAHLPEAWPAYTNERKAAFVFSAASHVEDDPFGRERAAWQGR
B3: unnamed (protein)
chain: MFIMIKKSELAKAIIVTGALVFSIPTLAEVTLSETTVSSIKSEATVSSTKKALPATPSDCIADSKITAVALSDTRDNGPFSIRTKRISRQSAKGFGGGTIHYPTNASGCGLLGAIAVVPGYVSYENSIKWWGPRLASWGFVVITINTNSIYDDPDSRAAQLNAALDNMIADDTVGSMIDPKRLGAIGWSMGGGGALKLATERSTVRAIMPLAPYHDKSYGEVKTPTLVIACEDDRIAETKKYANAFYKNAIGPKMKVEVNNGSHFCPSYRFNEILLSKPGIAWMQRYINNDTRFDKFLCANENYSKSPRISAYDYKDCP
B4: unnamed (protein)
chain: MKNAPIRSVLATCLVAAAASALAQTTAPTSASLNASAGPLSVSTASVTAPRGFGGGTIYYPTTQARYGVIAISPGFTATQISIAWLGRRIATHGFVVITLNTLTTLDQPDSRANQLMAALNHVINSSSSAVKARIDTSRLAVAGHSMGGGGALIAARDNPTLKASYPLTPWNINSAFTTVRVPTMIVGADGDTIAPVGTHARPFYAALPGATSKAYGELNGATHFSPNSTNTPIGRYGVAWMKRFLDGDTRYSTFLCGTEHTRYATALVFDRYNQNCPY
B5: unnamed (protein)
chain: MVGYLEAVANYFPDTKWANYTTGYDGGTGGQTGFYNVMLQNSPLGALSWWNASCEFHDVMVEQAADTAARVPSNYRYYIGAGSAHTMYGSDKVYSDQSGGESQTILDWVNDMLAFDPAAADPGAPSWQSVECDDCEIVLPGDPLPRSLPTAPFALDIAGNPVIRCPPFPRGPDPTPAALEADLGPFPVRSYRPFFTPGFGAGTIWYPANPNPGPFAVIAVSPGFRAPESTMAWVGPRLASNGFIVITISTQSPFDNPTSRAKQLMAALRLVAAEGRRPSPIIGRVDGDRTGLIGHSMGGGGSLIAARDNPSVDAIIPLAPWNSPAKDFSAVEAASLIVACERDEIARVSQHAKPFYDSIPAADVNKAFLEFRGADHLCVMVGNDHYATLGKYIVAWMKAFLDSDTRYDEYLCG
B6: unnamed (protein)
chain: MTVCKLRMFTAQKHPVTNKIFGGSSMSSRKQDLRLRQLLYCLLLSTALGGAVVHAQTAPATIAQEAFNNGFGIFTAAGSATANGQAVLAGTFGGTDGSITSSPISTQGFSNITVSFDRTTVGLDNGEAGVAEFSVAGGAFTAIESAQTASGRMSFALAASAANQAQLRLRFRVVASRANETYSVDNVLVQGVAAGAQPPPPDPQPTNNPFQRGPTPSAATLEAAQGPFAVATTTVPNPSGFGAGTIYFPTSTTEGPFAAVSIAPGFSERQANVNWWGPRLASNGFVVVVIDTNSTSDAPASRATQLVAALRQVVTLSGTSGSPVFNKVDGNRLGVMGHSLGGGGTLIAAQNNPTLKAAIPFAPFNNDTNFSSVVVPTLIIACENDNVAPVADHASPFYNSFAASLDKAFLEIAGGSHSCANSGNNNMPILGKYGVSWMKLFMDNDTRYSPFLCGAPHQADLSGTQISEYRESCP
B7: unnamed (protein)
chain: MANPYERGPNPTDALLEASSGPFSVSEENVSRLSASGFGGGTIYYPRENNTYGAVAISPGYTGTEASIAWLGERIASHGFVVITIDTITTLDQPDSRAEQLNAALNHMINRASSTVRSRIDSSRLAVMGHSMGGGGTLRLASQRPDLKAAIPLTPWHLNKNWSSVTVPTLIIGADLDTIAPVATHAKPFYNSLPSSISKAYLELDGATHFAPNIPNKIIGKYSVAWLKRFVDNDTRYTQFLCPGPRDGLFGEVEEYRSTCPF
B8: unnamed (protein)
chain: MDKTRLFSTLSMVTSALLFSISVSAGKPSKGGDEPAPEPAACISDTDITSAALSSTGSSGPFTVSTKDVSRWSASGFGGGTIHYPTGAGDCGPIGGIAVVPGYVSYEASIKWWGPRLASWGFVVITINTNSIYDQPDSRATQLSAALDHIINDSTVGSMVDSSRLGAIGWSMGGGGALKLATDRSEVKAIIPQAPWYSGRYGRMKTPAFMIGCENDFVAPTSNHVDVFYANASGPKMKIEVNNGDHSCANSGYNETLLGKPGIAWMQRYIHGDTRFNQFLCGNENYGSSNSVSAYDFESC
B9: unnamed (protein)
chain: MNNNKMPKSALSLLVAGALFLSATAMAANPVPPPTNPGNPDSGYQRGPNPSVSMLEARNGPFSVRTTNVSSFTSGFGGGTIHYPTNTTGTMAAIVVIPGFVSAESSIEWWGPKLASHGFVVMTIDTNSGFDQPPSRARQINAALDYLIDQNNARGSAVSGMIDPNRLGVVGWSMGGGGSLRVAAEGRLDAVIPLAPWDTTNFRSVNTPALIFACESDTIAPVRSHASPFYNQIPASTPKAFVEISRGSHYCANGGGSNDAVLSRLGVSWMKVHLDKDQRYQQFICGPRHESDRSISEYRGN
B10: unnamed (protein)
chain: MLALRTSFPRVLTRLLAASLATGLVAQAQAAGHERGPAPTAASLEAEAGPFQVASTVLGAPVGYKGGTVFYPKGPGPFALVAFAPGFIETQSWNAWWAKYLASHGFVVVNIDTKSTLAFPPARQREQLAALKDVIQRSHTRGTPFYGLVDATRLGAMGHSMGGGATLELARDTPHIKAIVPMAPFQTTGTDYSRLTVPTLILTCKGDIVASAKSHAAPIYDSLPSSLDKAHVELAGGGGHPCTTSLGTSAEVKKVAAKYGVSWLKRFLDEDTRYSPFLCGAEHEASLKTSVVSAYQGNCP
B11: unnamed (protein)
chain: MKTSNSRRRRLAVAAGALLLAAAAHAQTNPYQKGPDPTSASLEATAGPFAVSTTSVSSSASGFGGGTIYYPTTAGSYGAIAISPGFTATQSSIAWLGRRLASHGFVVITIDTNSTLDQPASRATQLMAALNYVVNSSSSTVRSRVDANRLGVAGHSMGGGGTLIAARDNPTLKAAVPLTPWNTTKNFSSVTVPTLIIGAENDTVAPVSSHAIPFYNSLPSSTDKAYAELNGASHFAPNSSNTPIGKYSVAWMKRFVDNDTRYSPFLCGAPHTAYATSSAVSDYRSTCPY
B12: unnamed (protein)
chain: MFNQIGKKSALSLMAAGSLMFSATALAIGGGGSGGGNNGGGGGCEADCGYERGPDPSVSLLEASTGPFSVRTSNVSSSVRGFGGGTIHYPTNTTGTMAAIVVIPGFVSPESSIAWWGPKLASHGFVVMTIGTNSGFDQPASRASQLNNALDYLIEQNGSSRSPINGMIDTDRLGVMGWSMGGGGTLRVATEGRVSAAIPLAPWDSSSSQFRSIDTPTLIFACENDSTAPVRSHADPFYDAIPDSTAKAFVELDGGGHTCANGSSGFGGSYNDVLSRLGVSWMKLHLDKDQRYNQFVCGPNHESDRSISEYRGTCPY
B13: unnamed (protein)
chain: MKFNLSEKWLIALLASSLSFNALAVGGGGDDDDPPSCETDCGYERGPDPTASSLEADDGPYNVSTINVSSFVSGFGGGTIHYPRGTSGTMGAIAVVPGFVSSESDIIWWGSRIASHGFVVITIDTNSGFDQPDSRANQLSAALDYVIDESDSSSSAISGMVDSSRLGVMGWSMGGGGSLKLATDRNLMAIIPQAPYYSGFNDFDEITTPTLIIACENDAVAPVSSHASSFYYDIPSSTDKAFLEINNGSHYCGNTGNANEDILGKYGVAWMKRFIDLDQRYDQFLCGPNHDAPYAISEYRDTCN
B14: unnamed (protein)
chain: MVVIRTTNTTPTLQVTLMTTISVRKSALFVFAATAVLFSMSAFSFNPPTEPEPDPGPSPCQTDCGFTRGPNPTASYLEASTGPYAVRTTDVSRYVSGFGGGTIHYPAGTTGEMGAIAIVPGFFASESSIQWWGPRLASHGFVVITISTNSVFDQPGSRSAQLENALDYVISQSNSPTSGILGMVDSSRVGAMGWSMGGGGTLRLASSERLSAAIPLAPWNTGSNNFDQIDTPTLIFACENDGTAPVSQHASPFYNRIPGATAKAYFEINNGQHSCANGGGSNGGLLGKYGVSWMKLHIDKDDRYNRFLCGPNHAANSAISEYRGTCPY
B15: unnamed (protein)
chain: MNFPRASRLMQAAVLGGLMAVSAAATAQTNPYARGPNPTAASLEASAGPFTVRSFTVSRPSGYGAGTVYYPTNAGGTVGAIAIVPGYTARQSSIKWWGPRLASHGFVVITIDTNSTLDQPSSRSSQQMAALRQVASLNGTSSSPIYGKVDTARMGVMGWSMGGGGSLISAANNPSLKAAAPQAPWDSSTNFSSVTVPTLIFACENDSIAPVNSSALPIYDSMSRNAKQFLEINGGSHSCANSGNSNQALIGKKGVAWMKRFMDNDTRYSTFACENPNSTRVSDFRTANCS

Each protein was assayed on p-NP-C6. Conditions: pH 8.5; 60 °C; part of the chain shown.
B1 gave a Km of 2.16 µM, a kcat of 38 s⁻¹ and a kcat/Km of 1.76e+07 M⁻¹ s⁻¹.

Same assay, conditions: pH 8.5; 60 °C
B2 was tested, and the Km was 0.5 µM, the kcat was 39.8 s⁻¹ and the kcat/Km was 7.95e+07 M⁻¹ s⁻¹.

What follows are proteins tested on BHET. Conditions: 120 h.
B3 was tested, and the plate clearing was “not clears the plate”. B4 was tested, and the plate clearing was “not clears the plate”. In the case of B5, the plate clearing is reported as “not clears the plate”. For B11, the plate clearing was “not clears the plate”. B12 was tested, and the plate clearing was “not clears the plate”. For B14, the plate clearing was “not clears the plate”.

Same assay, conditions: 120 h; part of the chain shown
In the case of B6, the plate clearing is reported as “clears the plate (z > 3 vs empty vector)”. In the case of B7, the plate clearing is reported as “clears the plate (z > 3 vs empty vector)”. B8 was tested, and the plate clearing was “not clears the plate”. With B9 the plate clearing was “not clears the plate”. In the case of B10, the plate clearing is reported as “not clears the plate”. In the case of B13, the plate clearing is reported as “not clears the plate”. With B15 the plate clearing was “clears the plate (z > 3 vs empty vector)”.

Reference: the PETadex activity labels
